According to publication PMC13170167, “Magnetosome organelles are organized through interactions between McaA and McaB that alter the dynamics of the bacterial actin-like protein MamK” (mBio, 2026):

Molecular target: the molecule itself
Assay: co-sedimentation; pelleting assay; each protein at 1 µM in polymerization buffer (10 mM Tris-HCl pH 7.5, 25 mM KCl, 2 mM MgCl2, 1 mM DTT) with 1 mM ATP, 25°C for 10 min, 100,000 x g for 30 min at 4°C; SDS-PAGE of pellet and supernatant

B1: MamK (untagged recombinant) (natural protein, Magnetospirillum magneticum AMB-1, UniProt Q2W8Q6 1-347, looked up)
chain: MSEGEGQAKNRLFLGIDLGTSHTAVMSSRGKKFLLKSVVGYPKDVIGLKLLGRPYVVGDEAFEMRSYLDIRYPLQDGVLSEISDRDIEVARHLLTHVVKSAEPGPNDEICAVIGVPARASAANKALLLKMAQEVVHTALVVSEPFMVGYGLDKLINTIIVDIGAGTTDICALKGTVPGPEDQVTLTKAGNYVDERLQNAILERHPELQMNVNVACAVKEQFSFVGTPTEVASFEFRAAGKPVRADVTEPVKIACEALMPDIIESIETLLRSFQPEYQATVLQNIVFAGGGSRIRGLAAYVKEKLRPFGDANVTCVKDPTFDGCRGALRLAEELPPQYWRQLGDVSGS
notes: MamK, bacterial actin-like protein of Magnetospirillum magneticum AMB-1; untagged; printed as 37.6 kDa; monomeric fractions were pooled; it forms filaments with ATP in polymerization buffer; also called purified MamK; MamK filaments; source: E. coli BL21, purified (ammonium sulfate precipitation, anion exchange, gel filtration)
- binding result: binds
